Here are results for 1 substance from article PMC4942342.

This experiment concerns the target sHRPb-NLG (evolved sHRPb fused to neuroligin) (horseradish | not stated). In words: split reporter.

In the case of “sHRPa-NRX (evolved sHRPa fused to neurexin)”, the signal to noise ratio (fluorescence intensity relative to background) lay in the range of 1.5 to 13.4.
